Reference: article PMC3184960

B1: c-Myc-tagged wild-type XAP2 [human] / ERα, transfected in HeLa cells [not stated] (parent)
chain 1: MADIIARLREDGIQKRVIQEGRGELPDFQDGTKATFHYRTLHSDDEGTVLDDSRARGKPMELIIGKKFKLPVWETIVCTMREGEIAQFLCDIKHVVLYPLVAKSLRNIAVGKDPLEGQRHCCGVAQMREHSSLGHADLDALQQNPQPLIFHMEMLKVESPGTYQQDPWAMTDEEKAKAVPLIHQEGNRLYREGHVKEAAAKYYDAIACLKNLQMKEQPGSPEWIQLDQQITPLLLNYCQCKLVVEEYYEVLDHCSSILNKYDDNVKAYFKRGKAHAAVWNAQEAQADFAKVLELDPALAPVVSRELRALEARIRQKDEEDKARFRGIFSH
chain 2: MTMTLHTKASGMALLHQIQGNELEPLNRPQLKIPLERPLGEVYLDSSKPAVYNYPEGAAYEFNAAAAANAQVYGQTGLPYGPGSEAAAFGSNGLGGFPPLNSVSPSPLMLLHPPPQLSPFLQPHGQQVPYYLENEPSGYTVREAGPPAFYRPNSDNRRQGGRERLASTNDKGSMAMESAKETRYCAVCNDYASGYHYGVWSCEGCKAFFKRSIQGHNDYMCPATNQCTIDKNRRKSCQACRLRKCYEVGMMKGGIRKDRRGGRMLKHKRQRDDGEGRGEVGSAGDMRAANLWPSPLMIKRSKKNSLALSLTADQMVSALLDAEPPILYSEYDPTRPFSEASMMGLLTNLADRELVHMINWAKRVPGFVDLTLHDQVHLLECAWLEILMIGLVWRSMEHPGKLLFAPNLLLDRNQGKCVEGMVEIFDMLLATSSRFRMMNLQGEEFVCLKSIILLNSGVYTFLSSTLKSLEEKDHIHRVLDKITDTLIHLMAKAGLTLQQQHQRLAQLLLILSHIRHMSNKGMEHLYSMKCKNVVPLYDLLLEMLDAHRLHAPTSRGGASVEETDQSHLATAGSTSSHSLQKYYITGEAEGFPATV

Variants of: B1
Test: co-immunoprecipitation (IP with ERα antibody, Western blot with c-Myc antibody, band densitometry)
Conditions: 24 h after transfection
[1] = 10 nM E2 for 1 h, parent: 1, read off a plot
[2] = DMSO (veh) for 1 h, parent: 0.9, read off a plot

ratio to parent [1]	ratio to parent [2]	Variant
0.68	0.85	chain 1 MADIIARLREDGIQKRVIQEGRGELPDFQDGTKATFHYRTLHSDDEGTVLDDSRARGKPMELIIGKKFKLPVWETIVCTMREGEIAQFLCDIKHVVLYPLVAKSLRNIAVGKDPLEGQRHCCGVAQMREHSSLGHADLDALQQNPQPLIFHMEMLKVESPGTYQQDPWAMTDEEKAKAVPLIHQEGNRLYREGHVKEAAAKYYDAIACLKNLQMKEQPGSPEWIQLDQQITPLLLNYCQCKLVVEEYYEVLDHCSSILNKYDDNVKAYFKWGKAHAAVWNAQEAQADFAKVLELDPALAPVVSRELRALEARIRQKDEEDKARFRGIFSH [chain 1 R271W]
0.97	0.85	chain 1 MADIIARLREDGIQKRVIQEGRGELPDFQDGTKATFHYRTLHSDDEGTMLDDSRARGKPMELIIGKKFKLPVWETIVCTMREGEIAQFLCDIKHVVLYPLVAKSLRNIAVGKDPLEGQRHCCGVAQMREHSSLGHADLDALQQNPQPLIFHMEMLKVESPGTYQQDPWAMTDEEKAKAVPLIHQEGNRLYREGHVKEAAAKYYDAIACLKNLQMKEQPGSPEWIQLDQQITPLLLNYCQCKLVVEEYYEVLDHCSSILNKYDDNVKAYFKRGKAHAAVWNAQEAQADFAKVLELDPALAPVVSRELRALEARIRQKDEEDKARFRGIFSH [chain 1 V49M]
